B1: 5Hg4-5Lg2 human Alya IgG1 (antibody, V domains shown)
VH: QVQLVQSGSELKKPGASVKVSCKASGYTFTDYWMHWVRQAPGQGLEWMGAIDTSDSYTSYNQKFKGRFVFSLDTSVSTAYLQICSLKAEDTAVYYCARDYGNFYYYAMDYWGQGTLVTVSS
VL: QAVVTQEPSLTVSPGGTVTLTCRSSTGAVTTSNYANWFQQKPGQAPRTLIYGTNNRAPWTPARFSGSLLGGKAALTLLGAQPEDEAEYYCALWYSNHWVFGGGTKLTVL
notes: Humanised 5E3; human IgG1 Alya constant (239iCys, S442C, EU), lambda light chain; purified, unconjugated
B2: 5Hg5-5Lg2 human Alya IgG1 (antibody, V domains shown)
VH: EVQLVQSGAEVKKPGESLRISCKGSGYSFTDYWMHWVRQMPGKGLEWMGAIDTSDSYTSYNQKFKGQVTISADKSISTAYLQWSSLKASDTAMYYCARDYGNFYYYAMDYWGQGTLVTVSS
VL: QAVVTQEPSLTVSPGGTVTLTCRSSTGAVTTSNYANWFQQKPGQAPRTLIYGTNNRAPWTPARFSGSLLGGKAALTLLGAQPEDEAEYYCALWYSNHWVFGGGTKLTVL
notes: Humanised 5E3; human IgG1 Alya constant (239iCys, S442C, EU), lambda light chain; purified, unconjugated; also called 5HE5/5Lg2
B3: 5Hg2-5Lg6 human Alya IgG1 (antibody, V domains shown)
VH: QVQLVQSGAEVKKPGASVKVSCKASGYTFTDYWMHWVRQAPGQRLEWMGAIDTSDSYTSYNQKFKGRVTITRDTSASTAYMELSSLRSEDTAVYYCARDYGNFYYYAMDYWGQGTLVTVSS
VL: SYELTQPSSVSVSPGQTARITCRSSTGAVTTSNYANWFQQKPGQAPVLVIYGTNNRAPGIPERFSGSSSGTTVTLTISGAQVEDEADYYCALWYSNHWVFGGGTKLTVL
notes: as for B1

The test deals with T1, cynomolgus SEMA4A expressed on expi293 cells (UniProt ID G7NV79) (cynomolgus, UniProt Q9H3S1 33-761 (human entry)).
T1 construct: Transient transfection in expi293 cells; also called cyno SEMA4A
T1 chain: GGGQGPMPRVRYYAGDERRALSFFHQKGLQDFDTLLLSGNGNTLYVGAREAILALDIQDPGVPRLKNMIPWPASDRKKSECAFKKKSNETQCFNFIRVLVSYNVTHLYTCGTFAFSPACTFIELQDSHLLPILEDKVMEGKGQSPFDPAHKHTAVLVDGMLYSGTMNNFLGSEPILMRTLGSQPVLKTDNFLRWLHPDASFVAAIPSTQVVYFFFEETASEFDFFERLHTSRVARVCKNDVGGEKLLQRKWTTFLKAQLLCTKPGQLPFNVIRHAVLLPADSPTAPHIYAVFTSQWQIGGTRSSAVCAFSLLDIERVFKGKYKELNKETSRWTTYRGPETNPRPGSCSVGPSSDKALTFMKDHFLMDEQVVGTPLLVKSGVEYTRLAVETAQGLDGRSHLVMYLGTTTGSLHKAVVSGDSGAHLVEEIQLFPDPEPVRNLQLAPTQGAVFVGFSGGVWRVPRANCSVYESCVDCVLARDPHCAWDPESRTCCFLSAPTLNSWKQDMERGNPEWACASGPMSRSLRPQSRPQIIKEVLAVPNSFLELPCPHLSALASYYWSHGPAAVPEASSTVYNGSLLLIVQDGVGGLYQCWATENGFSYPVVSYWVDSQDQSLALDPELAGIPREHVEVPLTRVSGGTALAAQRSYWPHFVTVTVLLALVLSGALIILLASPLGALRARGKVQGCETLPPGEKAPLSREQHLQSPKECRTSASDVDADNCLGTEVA
Description: Mirrorball direct binding, dilution series on expi293 cells transiently transfected with cyno SEMA4A, anti-human Alexa Fluor 647. From the text:
Hits from the primary screening were re-formatted into the human Alya IgG1 vector and re-expressed and purified as described in section 4.1. In addition, a single clone was identified that contained an Asparagine deamidation motif (Asn Gly) within its VHCDR2. This potential sequence liability was de-risked by synthesising de novo two clonal variant VH genes (Asn Ala and Gln Gly) and cloning these sequences into the human Alya IgG1 expression vector. To determine the specificity profile of each purified human Alya IgG1, a dilution series was tested for binding to human SEMA4A, mouse SEMA4A, cyno SEMA4A, human SEMA4B and mock transfected cells (transient transfections set up in expi 293 cells.) The five assays employed methods described in section 2.3, using the appropriate cells and substituting the un-purified scFv periplasmic preparation with the recombinant human Alya IgG1 dilution series. Data was analysed as Count x median mean intensity (x FLU).
Regarding B1, the binding result was “binds”.
For the molecule B2, the binding result is “binds”.
For the molecule B3, the binding result was “binds”.

The values above are taken from patent publication US20250152729A1 (CANCER RESEARCH TECHNOLOGY, published 2025).
